We go through 10 variants from PMC2408616, “Modular Organization and Combinatorial Energetics of Proline–Tyrosine Nuclear Localization Signals” (PLoS Biology, 2008).

B1: MBP–Hrp1p NLS [S. cerevisiae] / Kap104p [yeast (S. cerevisiae)] (parent)
chain 1: RDRNDRDRDYNHRSGGNHRRNGRGGRGGYNRRNNGYHPYNR
chain 2: MASTWKPAEDYVLQLATLLQNCMSPNPEIRNNAMEAMENFQLQPEFLNYLCYILIEGESDDVLKQHYSLQDLQNNRATAGMLLKNSMLGGNNLIKSNSHDLGYVKSNIIHGLYNSNNNLVSNVTGIVITTLFSTYYRQHRDDPTGLQMLYQLLELTSNGNEPSIKALSKIMEDSAQFFQLEWSGNTKPMEALLDSFFRFISNPNFSPVIRSESVKCINTVIPLQTQSFIVRLDKFLEIIFQLAQNDENDLVRAQICISFSFLLEFRPDKLVSHLDGIVQFMLHLITTVNEEKVAIEACEFLHAFATSPNIPEHILQPYVKDIVPILLSKMVYNEESIVLLEASNDDDAFLEDKDEDIKPIAPRIVKKKEAGNGEDADDNEDDDDDDDDEDGDVDTQWNLRKCSAATLDVMTNILPHQVMDIAFPFLREHLGSDRWFIREATILALGAMAEGGMKYFNDGLPALIPFLVEQLNDKWAPVRKMTCWTLSRFSPWILQDHTEFLIPVLEPIINTLMDKKKDVQEAAISSVAVFIENADSELVETLFYSQLLTSFDKCLKYYKKKNLIILYDAIGRFAEKCALDETAMQIILPPLIEKWALLSDSDKELWPLLECLSCVASSLGERFMPMAPEVYNRAFRILCHCVELEAKSHQDPTIVVPEKDFIITSLDLIDGLVQGLGAHSQDLLFPQGTKDLTILKIMLECLQDPVHEVRQSCFALLGDIVYFFNSELVIGNLEDFLKLIGTEIMHNDDSDGTPAVINAIWALGLISERIDLNTYIIDMSRIILDLFTTNTQIVDSSVMENLSVTIGKMGLTHPEVFSSGAFANDSNWNKWCLSVNALDDVEEKSSAYMGFLKIINLTSTEVTMSNDTIHKIVTGLSSNVEANVFAQEIYTFLMNHSAQISAINFTPDEISFLQQFTS
B2: MBP–Nab2p NLS [S. cerevisiae] / Kap104p [yeast (S. cerevisiae)] (parent)
chain 1: DNSQRFTQRGGGAVGKNRRGGRGGNRGGRNNNSTRFNPLAKALGMAGESNM
chain 2: B1 chain 2

Holding throughout (experiment): ITC
In general terms: Isothermal titration calorimetry measures the heat released or taken up as one component is titrated into another.

In assay [1] the parent is B1. To be noted: with Kap104p [yeast (S. cerevisiae)]; for Kd: parent: 32 nM; for ratio to parent: parent: 1.
Assay [2] covers variants of B1. To be noted: with Kap104p [yeast (S. cerevisiae)].
In assay [3] the parent is B2. To be noted: with Kap104p [yeast (S. cerevisiae)]; for ratio to parent: parent: 1; for dG: parent: -10.

What is called Kd is a measure of binding affinity in units of concentration.

chain 1 Y36A: the Kd in assay [1] is 143 nM.

As to chain 1 Y36L, in assay [2], the screen value was -0.9 kcal/mol/K. Moreover, in assay [1], the ddG was -0.02 kcal/mol, the screen value is -10.9 kcal/mol and the ratio to parent worked out at 1.1.

In the case of chain 1 R19K R20K R23K R26K, the screen value in assay [2] is -2.8 kcal/mol/K. In assay [1], the ddG was -0.05 kcal/mol, the screen value is -12.8 kcal/mol, the Kd was 36 nM and the ratio to parent was 1.1.

Take chain 1 R19A R20A R23A R26A: the Kd in assay [1] was 194 nM.

In the case of chain 1 R31A, in assay [2], the screen value was -1.8 kcal/mol/K. Also, in assay [1], the ddG is 0.07 kcal/mol, the screen value is -11.7 kcal/mol and the ratio to parent worked out at 1.1.

As for chain 1 R32A, in assay [2], the screen value is -2.2 kcal/mol/K. Moreover, in assay [1], the ddG was -0.5 kcal/mol, the screen value is -12.7 kcal/mol and the ratio to parent was 0.4.

Turning to chain 1 R19A Y36A, the screen value in assay [2] is -2.2 kcal/mol/K. In assay [1], the ddG was 0.4 kcal/mol, the screen value was -11.9 kcal/mol, the Kd turned out to be 60 nM and the ratio to parent turned out to be 1.9.

Turning to chain 1 F36L, in assay [3], the ddG is -0.3 kcal/mol, the screen value is -8.4 kcal/mol, the ratio to parent stood at 1.8 and the dG is -9.7 kcal/mol.

Take chain 1 R18A R19A R22A R26A R29A P38A L39A: the ratio to parent in assay [3] was greater than 200.

In the case of chain 1 R18K R19K R22K R26K R29K, in assay [3], the ddG is -0.4 kcal/mol, the screen value is -9.9 kcal/mol, the ratio to parent is 0.6 and the dG was -10.3 kcal/mol.
